Data as given in US11162087B2, “Beta-glucosidase, enzyme composition including same, and method for manufacturing sugar solution using same” (RIKEN, priority 2017, dated 2021).

What was measured:
[1] = β-glucosidase activity measurement with pNP-Glc; assay type: biochemical; conditions: 1 mM pNP-Glc, 50 mM acetic acid buffer, 30° C., 10 minutes; 1 U = 1 μmol p-nitrophenol per minute
Experimental: In the present invention, “β-glucosidase” means an enzyme that catalyzes a reaction for hydrolysis degradation of a sugar β-glucoside bond. In the present invention, a method for measuring a β-glucosidase activity utilizes a reaction using p-nitrophenyl-β-D-glucopyranoside (pNP-Glc) as a substrate. Specifically, an enzyme liquid is added to a substrate solution prepared by dissolving pNP-Glc in 50 mM acetic acid-sodium acetate buffer solution (pH 5.0) and reacted at 30° C. for 10 minutes; and the reaction is stopped by well mixing with 2M sodium carbonate in an amount equivalent to one-tenth of a reaction system volume to measure an increase of the absorbance at 405 nm. When p-nitrophenol is released and the absorbance at 405 nm is increased after the above reaction, it is determined that the β-glucosidase activity is present.
10 μL of an enzyme diluted solution was added to and reacted with 90 μL of 50 mM acetic acid buffer containing 1 mM p-nitrophenyl-β-glucopyranoside (manufactured by Sigma-Aldrich Japan) at 30° C. for 10 minutes. Thereafter, 10 μL of 2M sodium carbonate was added and well mixed to stop the reaction, and an increase of absorbance at 405 nm was measured. The activity to release 1 μmol of p-nitrophenol per minute was defined as 1 U. For a blank, 10 μL of 2M sodium carbonate was added to and well mixed with 90 μL of 50 mM sodium acetate buffer containing 1 mM p-nitrophenyl-β-glucopyranoside, and thereafter, 10 μL of an enzyme diluted solution was added to cause a reaction at 30° C. for 30 minutes. Thereafter, an increase of absorbance at 405 nm was measured. At this time, the enzyme liquid was diluted so as not to exceed an absorbance at 405 nm of 1. In addition, a calibration curve was created based on absorbances measured by preparing p-nitrophenol solutions at concentrations of 0.1 mM, 0.2 mM, 1 mM and 2 mM; using 10 μL of them instead of an enzyme diluted solution; and adding and well mixing 10 μL of 2M sodium carbonate for color development.

[2] = Inhibitory action of glucose on the β-glucosidase activity; assay type: biochemical; conditions: 1 mM pNP-Glc, 30° C., 100 minutes
Source text: The β-glucosidase derived from a protist of the genus Pseudotrichonympha of the present invention is preferably less likely to suffer from inhibition by glucose on the 3-glucosidase activity. Specifically, when the β-glucosidase activity in the absence of glucose is taken unity, the β-glucosidase activity under a condition of a glucose concentration of 8 g/L (or in the presence of 8 g/L glucose) is preferably 0.5 or more, more preferably 0.6 or more, more preferably 0.7 or more, more preferably 0.8 or more, more preferably 0.9 or more, more preferably 1.0 or more, more preferably 1.1 or more, more preferably 1.2 or more, more preferably 1.3 or more, and in particular preferably 1.4 or more. Further, in addition to the β-glucosidase activity under the condition of the glucose concentration of 8 g/L, when the β-glucosidase activity in the absence of glucose is taken as unity, the β-glucosidase activity under a condition of a glucose concentration of 20 g/L (or in the presence of 20 g/L glucose) is preferably 0.5 or more, more preferably 0.6 or more, and in particular preferably 0.7 or more. The method used herein for measuring the β-glucosidase activity is the same as the above-described method except that 8 g/L or 20 g/L of glucose is added at the time of measuring; and results obtained thereby are used.
An enzyme solution was added to a mixture solution containing 1 mM p-nitrophenyl-β-glucopyranoside (manufactured by Sigma-Aldrich Japan), 50 mM acetic acid buffer and 0, 4, 8 or 20 g/L glucose such that the total amount of the reaction solution became 100 μL, causing a reaction at 30° C. for 100 minutes. Thereafter, 10 μL of 2M sodium carbonate was added and well mixed to stop the reaction, and an increase of absorbance at 405 nm was measured. The activity to release 1 μmol of p-nitrophenol per minute was defined as 1 U. For a blank, 10 μL of 2M sodium carbonate was added to an amount, equivalent to that of the above mixture solution for the reaction solution before addition of the enzyme solution, of a mixture solution containing 1 mM p-nitrophenyl-β-glucopyranoside, 50 mM sodium acetate buffer and 0, 4, 8 or 20 g/L glucose, and mixed well; and then, the enzyme solution was added such that the total solution amount of the blank became 110 μL, causing a reaction at 30° C. for 30 minutes. Thereafter, an increase of absorbance at 405 nm was measured.
In accordance with Reference Example 8, the inhibitory action of glucose on the β-glucosidase activity was measured in enzyme compositions: containing the β-glucosidase and the genus Trichoderma filamentous fungus-derived cellulase prepared in Example 10; and the cell-free extract of β-glucosidase mutant gene transformed E. coli prepared in Example 5. For a comparative control, only the genus Trichoderma filamentous fungus-derived cellulase was used, and the inhibitory action of glucose on the β-glucosidase activity was measured in the same manner. […] That is, both of the enzyme composition containing the β-glucosidase of the present invention and the genus Trichoderma filamentous fungus-derived cellulase, and the cell-free extract of β-glucosidase mutant gene transformed E. coli were less likely to suffer from inhibition on the β-glucosidase activity by glucose, compared to only the genus Trichoderma filamentous fungus-derived cellulase, and the enzyme composition of Comparative Example 1 containing the genus Aspergillus filamentous fungus-derived β-glucosidase and the genus Trichoderma filamentous fungus-derived cellulase.

| Molecule | β-glucosidase activity per 1 mg of protein [1] | BGL activity (relative value) in the presence of 8 g/L glucose when BGL activity in the absence of glucose is taken as unity [2] | BGL activity (relative value) in the presence of 20 g/L glucose when BGL activity in the absence of glucose is taken as unity [2] |
| --- | --- | --- | --- |
| partially purified β-glucosidase: His-tag purified elution fraction of SEQ ID NO: 1 β-glucosidase from E. coli cell-free extract, buffer exchanged (Example 7) (protein, listed as Pseudotrichonympha grassii, His-tag) QIEGLINVMTLEEKVGQMAQLAIDLFIDVPTDTVIPEAARKGIIDYKIGSILNTYGGVSHSKEVWTYINAEFYKYTEETDLKIPILYGLDSIHGANFVNNFTSFPQQIGMAATFNPSLLKEGSRISAYETRAASVGWVFSPVMDLGLDPRWPRIWEGFGEDPYLSSQFGIASVHGFQGKDPNLIDEFHVAACAKHYLAYSNPFTGKDRTPAILSDIFIREYHLPSFKAAVDAGVASVMVNSGLINGIPTHMNHYLLTTVLKEELGFQGVIVTDWQDIENIHTRDHLAPTQKDAVKLAINAGIDMSMIPYNYDFIDYLIELVHEGEVSIDRINDAVRRILKMKAKMNLWDLPVTKSEDYPEFGSEAHANASYTAASESITLLKNENSTLPLAKNTKVLVVGPNSNSHRSLNGGWSYSWQGNAGVQYAVQYNTIYQAIQKVNGEENTVFSQGVRYIETGNYYEDEEVNISESVALARDVDYIILALGENTYTEKPGDLSDLEISQNQIDLAKALASTGKPIILVLNQGRPRIISRIEQLVSAILWIYWPGNYGGDALADILFGDVNPSGKLPVTYPRYSASLITYWHKYAEEQVGQPGAYDYSSDYNPLWEFGYGLSYTTFNYSNLSVPSTSGMRDVIPVSVLVKNTGEVAGKEVVLLFTSDLYASLAPDVKRLRKFTKILLQPGEEQLVSFNLTSSDLSFIDAQSRRVTETGDFEIKIGGLKGKVTLT | 3.50 U per 1 mg of protein | – | – |
| Comparative Example 1: β-glucosidase derived from the genus Aspergillus filamentous fungus: Aspergillus β-glucosidase (SEQ ID NO: 10) expressed in Trichoderma reesei; measured as enzyme composition … (protein, listed as Aspergillus aculeatus, measured as enzyme composition with Trichoderma cellulase) DELAFSPPFYPSPWANGQGEWAEAYQRAVAIVSQMTLDEKVNLTTGTGWELEKCVGQTGGVPRLNIGGMCLQDSPLGIRDSDYNSAFPAGVNVAATWDKNLAYLRGQAMGQEFSDKGIDVQLGPAAGPLGRSPDGGRNWEGFSPDPALTGVLFAETIKGIQDAGVVATAKHYILNEQEHFRQVAEAAGYGFNISDTISSNVDDKTIHEMYLWPFADAVRAGVGAIMCSYNQINNSYGCQNSYTLNKLLKAELGFQGFVMSDWGAHHSGVGSALAGLDMSMPGDITFDSATSFWGTNLTIAVLNGTVPQWRVDDMAVRIMAAYYKVGRDRLYQPPNFSSWTRDEYGFKYFYPQEGPYEKVNHFVNVQRNHSEVIRKLGADSTVLLKNNNALPLTGKERKVAILGEDAGSNSYGANGCSDRGCDNGTLAMAWGSGTAEFPYLVTPEQAIQAEVLKHKGSVYAITDNWALSQVETLAKQASVSLVFVNSDAGEGYISVDGNEGDRNNLTLWKNGDNLIKAAANNCNNTIVVIHSVGPVLVDEWYDHPNVTAILWAGLPGQESGNSLADVLYGRVNPGAKSPFTWGKTREAYGDYLVRELNNGNGAPQDDFSEGVFIDYRGFDKRNETPIYEFGHGLSYTTFNYSGLHIQVLNASSNAQVATETGAAPTFGQVGNASDYVYPEGLTRISKFIYPWLNSTDLKASSGDPYYGVDTAEHVPEGATDGSPQPVLPAGGGSGGNPRLYDELIRVSVTVKNTGRVAGDAVPQLYVSLGGPNEPKVVLRKFDRLTLKPSEETVWTTTLTRRDLSNWDVAAQDWVITSYPKKVHVGSSSRQLPLHAALPKVQ | – | 0.46 | 0.20 |
| β-glucosidase of the present invention (SEQ ID NO: 1): Polypeptide of SEQ ID NO: 1 from Pseudotrichonympha grassii; in Tables 12/13 measured as the Example 10 composition with Trichoderma cellulase (protein, listed as Pseudotrichonympha grassii) QIEGLINVMTLEEKVGQMAQLAIDLFIDVPTDTVIPEAARKGIIDYKIGSILNTYGGVSHSKEVWTYINAEFYKYTEETDLKIPILYGLDSIHGANFVNNFTSFPQQIGMAATFNPSLLKEGSRISAYETRAASVGWVFSPVMDLGLDPRWPRIWEGFGEDPYLSSQFGIASVHGFQGKDPNLIDEFHVAACAKHYLAYSNPFTGKDRTPAILSDIFIREYHLPSFKAAVDAGVASVMVNSGLINGIPTHMNHYLLTTVLKEELGFQGVIVTDWQDIENIHTRDHLAPTQKDAVKLAINAGIDMSMIPYNYDFIDYLIELVHEGEVSIDRINDAVRRILKMKAKMNLWDLPVTKSEDYPEFGSEAHANASYTAASESITLLKNENSTLPLAKNTKVLVVGPNSNSHRSLNGGWSYSWQGNAGVQYAVQYNTIYQAIQKVNGEENTVFSQGVRYIETGNYYEDEEVNISESVALARDVDYIILALGENTYTEKPGDLSDLEISQNQIDLAKALASTGKPIILVLNQGRPRIISRIEQLVSAILWIYWPGNYGGDALADILFGDVNPSGKLPVTYPRYSASLITYWHKYAEEQVGQPGAYDYSSDYNPLWEFGYGLSYTTFNYSNLSVPSTSGMRDVIPVSVLVKNTGEVAGKEVVLLFTSDLYASLAPDVKRLRKFTKILLQPGEEQLVSFNLTSSDLSFIDAQSRRVTETGDFEIKIGGLKGKVTLT | – | 1.49 | 0.94 |
